Laboratory results published in patent US20240336672A1 (INSTITUT PASTEUR, published 2024).
Changes are numbered by the printed parent chain.

B1: Cv2.3194 (recombinant human IgG1) (antibody, V domains shown)
VH: EVQLVESGGGLIQPGGSLRLSCAASGITVTSNYMSWVRQAPGKGLEWVSVIYPGGSTFYADSVKGRFTISRDNSKNTLYLQMNSLRAEDTAVYYCARDLVVYGMDVWGQGTTVTVSS
VL: EIVLTQSPGTLSLSPGERATLSCRASQSVSSSYLAWYQQKPGQAPRLLIYGASSRATGIPGRFSGSGSGTDFTLTISRLEPEDFAIYYCQQGVTFGGGTKVEIKR
B2: Cv2.5213 (recombinant human IgG1) (antibody, V domains shown)
VH: B1 VH with I27F, T30S, V50L, P53S, F58Y, V100N, V101Y, T111A
VL: DIQMTQSPSSLSASVGDRVTITCRASQGISSYLAWYQQKPGKAPKLLIYAASTLQSGVPSRFSGSGSGTDFTLTISSLQPEDFATYYCQQLDSYSPFTFGPGTKVDIKR
B3: Cv2.3235 (recombinant human IgG1) (antibody, V domains shown)
VH: B1 VH with I27F, T30S, S31R, P53S, L99G, V100D, V101Y
VL: DIQMTQSPSFLSASVGDRVTITCRASQGISSFLAWYQQKPGKAPKLLIYGASTLQSGVTSRFSGSGSGTEFTLTISSLQPEDFATYYCQRLDSYPPITFGQGTRLEIKR
B4: Cv2.1169 (recombinant human IgG1) (antibody)
heavy: QVQLVQSGPEVKKPGTSVKVSCKASGFTFTTSAVQWVRQARGQRLEWIGWIVVGSGNTNYAQKFQERVTITRDMSTTTAYMELSSLRSEDTAVYYCAAPYCSGGTCLDGFDIWGQGTMVTVSSASTKGPSVFPLAPSSKSTSGGTAALGCLVKDYFPEPVTVSWNSGALTSGVHTFPAVLQSSGLYSLSSVVTVPSSSLGTQTYICNVNHKPSNTKVDKKVEPKSCDKTHTCPPCPAPELLGGPSVFLFPPKPKDTLMISRTPEVTCVVVDVSHEDPEVKFNWYVDGVEVHNAKTKPREEQYNSTYRVVSVLTVLHQDWLNGKEYKCKVSNKALPAPIEKTISKAKQPREPQVYTLPPSRDELTKNQVSLTCLVKGFYPSDIAVEWESNGQPENNYKTTPPVLDSDGSFFLYSKLTVDKSRWQQGNVFSCSVMHEALHNHYTQKSLSLSPGK
light: not shown
notes: also called Cv2.1169 IgG
B5: Cv2.1353 (recombinant human IgG1) (antibody, V domains shown)
VH: EVQLVESGGGLVQPGGSLRLSCAASGVTVSSNYMNWVRQAPGKGLEWVSVIYSGGSTFYADSVKGRFIISRDNSKNTLYLQMNSLKTEDTAVYYCARDLGPMGFDIWGQGTMVTVSS
VL: B2 VL with S10F, D70E, D92N, Y94D, S95P, F97V

biological target: T1, CoV-NL63 Spike ectodomain (NL63-CoV, UniProt Q6Q1S2 19-1291); experiment: ELISA, coated spike ectodomain
T1 sequence: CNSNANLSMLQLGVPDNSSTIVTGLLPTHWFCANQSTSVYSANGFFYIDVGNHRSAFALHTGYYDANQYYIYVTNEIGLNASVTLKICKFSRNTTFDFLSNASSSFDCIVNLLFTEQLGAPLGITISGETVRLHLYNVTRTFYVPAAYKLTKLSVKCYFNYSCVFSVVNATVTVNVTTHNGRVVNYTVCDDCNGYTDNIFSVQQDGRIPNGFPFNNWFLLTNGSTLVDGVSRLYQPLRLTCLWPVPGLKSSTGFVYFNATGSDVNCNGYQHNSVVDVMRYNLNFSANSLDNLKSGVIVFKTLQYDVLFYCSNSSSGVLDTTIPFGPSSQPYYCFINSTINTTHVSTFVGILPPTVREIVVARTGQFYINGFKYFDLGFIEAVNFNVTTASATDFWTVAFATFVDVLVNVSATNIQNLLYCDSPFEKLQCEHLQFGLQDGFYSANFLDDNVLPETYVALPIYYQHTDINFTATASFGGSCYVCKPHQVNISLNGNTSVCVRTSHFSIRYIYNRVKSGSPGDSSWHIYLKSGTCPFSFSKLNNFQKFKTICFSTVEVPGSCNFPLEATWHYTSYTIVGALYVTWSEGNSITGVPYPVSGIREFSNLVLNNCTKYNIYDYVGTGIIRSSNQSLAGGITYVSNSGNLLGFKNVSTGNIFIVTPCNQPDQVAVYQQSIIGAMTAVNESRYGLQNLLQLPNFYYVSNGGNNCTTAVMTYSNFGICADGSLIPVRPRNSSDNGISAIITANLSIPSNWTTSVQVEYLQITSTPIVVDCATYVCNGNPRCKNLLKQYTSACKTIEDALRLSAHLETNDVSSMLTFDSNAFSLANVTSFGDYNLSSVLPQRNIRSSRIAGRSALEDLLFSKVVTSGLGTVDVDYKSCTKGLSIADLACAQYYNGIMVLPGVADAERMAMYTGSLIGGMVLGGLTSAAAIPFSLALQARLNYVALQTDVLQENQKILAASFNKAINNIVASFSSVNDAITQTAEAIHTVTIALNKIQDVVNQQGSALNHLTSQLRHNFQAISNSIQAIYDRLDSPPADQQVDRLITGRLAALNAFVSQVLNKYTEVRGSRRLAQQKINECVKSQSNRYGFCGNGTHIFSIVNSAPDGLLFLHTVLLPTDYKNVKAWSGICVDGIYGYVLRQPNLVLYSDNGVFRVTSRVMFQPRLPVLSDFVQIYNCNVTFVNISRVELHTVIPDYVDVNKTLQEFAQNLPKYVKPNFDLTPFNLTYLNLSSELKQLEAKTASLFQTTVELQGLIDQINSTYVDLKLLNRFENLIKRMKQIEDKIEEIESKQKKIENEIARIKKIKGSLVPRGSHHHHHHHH

**Q.** Does B1 bind?
**A.** no binding

**Q.** Does B2 bind?
**A.** no binding

**Q.** Does B3 bind?
**A.** no binding

**Q.** Does B4 bind?
**A.** no binding

**Q.** Does B5 bind?
**A.** no binding

Biological target: T2, CoV-HKU1 Spike ectodomain (HKU1-CoV, UniProt Q0ZME7 14-1276)
T2 chain: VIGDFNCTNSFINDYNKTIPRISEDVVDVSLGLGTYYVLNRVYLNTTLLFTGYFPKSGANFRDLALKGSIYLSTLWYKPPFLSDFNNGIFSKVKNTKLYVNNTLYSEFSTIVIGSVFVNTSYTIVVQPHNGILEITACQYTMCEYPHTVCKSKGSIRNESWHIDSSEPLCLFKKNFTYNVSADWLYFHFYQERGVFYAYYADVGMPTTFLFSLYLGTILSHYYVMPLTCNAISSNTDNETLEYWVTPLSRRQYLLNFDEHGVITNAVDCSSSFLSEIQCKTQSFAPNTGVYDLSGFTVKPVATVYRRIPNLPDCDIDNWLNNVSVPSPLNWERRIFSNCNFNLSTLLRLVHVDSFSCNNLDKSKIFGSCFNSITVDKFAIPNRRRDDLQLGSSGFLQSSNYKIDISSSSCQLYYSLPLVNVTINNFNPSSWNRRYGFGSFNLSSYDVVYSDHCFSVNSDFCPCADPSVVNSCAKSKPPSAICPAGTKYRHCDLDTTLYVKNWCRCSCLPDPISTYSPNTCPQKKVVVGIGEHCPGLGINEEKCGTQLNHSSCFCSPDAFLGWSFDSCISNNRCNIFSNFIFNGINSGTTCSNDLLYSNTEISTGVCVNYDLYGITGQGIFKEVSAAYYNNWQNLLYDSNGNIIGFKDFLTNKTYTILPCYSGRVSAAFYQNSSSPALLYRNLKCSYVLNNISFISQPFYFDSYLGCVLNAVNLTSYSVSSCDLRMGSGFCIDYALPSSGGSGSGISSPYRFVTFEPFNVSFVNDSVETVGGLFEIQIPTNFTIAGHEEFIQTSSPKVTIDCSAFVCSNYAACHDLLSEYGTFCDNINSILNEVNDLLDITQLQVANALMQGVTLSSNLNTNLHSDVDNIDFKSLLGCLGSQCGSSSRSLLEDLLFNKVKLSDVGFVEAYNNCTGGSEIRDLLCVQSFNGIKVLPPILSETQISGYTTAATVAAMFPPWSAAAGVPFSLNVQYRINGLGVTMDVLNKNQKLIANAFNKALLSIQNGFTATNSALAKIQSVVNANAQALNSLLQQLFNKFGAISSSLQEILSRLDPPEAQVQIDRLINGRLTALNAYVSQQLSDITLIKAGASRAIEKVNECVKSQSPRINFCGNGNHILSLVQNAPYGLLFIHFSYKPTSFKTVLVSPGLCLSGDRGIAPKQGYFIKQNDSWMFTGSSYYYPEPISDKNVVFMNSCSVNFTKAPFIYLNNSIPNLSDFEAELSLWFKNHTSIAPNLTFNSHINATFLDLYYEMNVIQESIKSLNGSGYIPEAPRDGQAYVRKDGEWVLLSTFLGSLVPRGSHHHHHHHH
Experiment: ELISA, coated spike ectodomain

**Q.** Does B1 bind?
**A.** no binding

**Q.** Does B2 bind?
**A.** no binding

**Q.** Does B3 bind?
**A.** no binding

**Q.** Does B4 bind?
**A.** no binding

**Q.** Does B5 bind?
**A.** no binding
